From US20080171037A1, “Apo-3 ligand polypeptide” (Genentech, Inc., priority 1997, published 2008)
“Also recorded” adds a separate entry of the source.

T1: Apo-3 (Homo sapiens, UniProt Q93038)
T1 construct: made in house
T1 sequence (Q93038 25-199 limits assumed): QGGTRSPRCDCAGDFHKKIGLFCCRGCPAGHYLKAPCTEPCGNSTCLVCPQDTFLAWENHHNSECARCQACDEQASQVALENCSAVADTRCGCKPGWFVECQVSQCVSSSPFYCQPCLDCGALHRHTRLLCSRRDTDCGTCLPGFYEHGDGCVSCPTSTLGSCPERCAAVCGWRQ


Tests used:
[1] = system: NF-κB; assay: NF-κB activation, electrophoretic mobility shift assay, HeLa cells; format: cell-based, human; conditions: FIG. 5A
Description: In a first assay, HeLa cells (ATCC CCL 22) were treated with His-tagged soluble Apo-3 Ligand (described in Example 3) (10 μg/ml) in duplicate or with vehicle for 30 minutes. His-tagged Apo-2 ligand (see WO 97/25428) or TNF-alpha (Pennica et al., Nature, 312:724-729 (1984)) were assayed for comparison. Nuclear extracts were prepared and 1 μg of nuclear protein was reacted with a ^32P-labelled NF-κB-specific synthetic oligonucleotide probe

[2] = system: MCF-7 breast carcinoma cells; assay: Apoptosis in MCF-7 breast carcinoma cells (microscopy, Hoechst dye); format: cell-based, human; conditions: MCF-7 cells pre-treated with CHX 10 μg/ml, ligand 2 μg/ml, 14 hours, FIG. 9A
Description: Human MCF-7 breast carcinoma cells (ATCC HTB 22) were pre-treated for 1 hour with cyclohexamide (CHX) (10 μg/ml) and incubated for 14 hours with soluble Apo-3 Ligand (2 μg/ml; prepared as described in Example 3 above) alone or together with zVAD-fmk (Research Biochemicals) (100 nM). The cells were then stained with Hoechst dye and photographed by phase (FIG. 9A, left) and by fluorescence (FIG. 9A, right) microscopy. In FIG. 9A, arrowheads indicate some of the apoptotic cells (left) and their condensed nuclei (right).
In a separate experiment, the MCF-7 cells were pre-treated for 1 hour with buffer or CHX, incubated for an additional 14 hours with the indicated concentrations of soluble Apo-3 Ligand (see FIG. 9B), and apoptotic or live cells were score by microscopy.

[3] = system: HeLa S3 cervical carcinoma cells; assay: Apoptosis in HeLa S3 cells (DNA fragmentation analysis); format: cell-based, human; conditions: HeLa S3 cells pre-treated with CHX, FIG. 9C
Description: HeLa S3 cervical carcinoma cells (ATCC CCL 2.2) were similarly pre-treated with CHX and then incubated with soluble Apo-3 Ligand (prepared as described in Example 3 above) alone or together with zVAD-fmk or DEVD-fmk (Research Biochemicals) (100 nM). The treated cells were then subjected to DNA fragmentation analysis.

[4] = system: NF-κB; assay: NF-κB activation, electrophoretic mobility shift assay, 293 cells; format: cell-based, human; conditions: 3 hours, FIG. 5B and 5C
[5] = system: HeLa cells; assay: Apoptosis in HeLa cells transfected with full length Apo-3 Ligand (FACS, annexin V binding); format: cell-based, human; conditions: HeLa cells transfected with plasmid encoding amino acids 1 to 249, CD4-positive cells, FIG. 6
Description: A pRK5 plasmid (see EP 307,247) encoding Apo-3 Ligand polypeptide (amino acids 1 to 249 of FIG. 1), or empty pRK5 plasmid, was transiently transfected along with a pRK5 plasmid encoding human CD4 as a marker for transfection into human HeLa cells by electroporation, and the cells were plated in tissue culture dishes. Four hours later, the caspase inhibitor z-VAD-fmk (Research Biochemicals) (200 μM) was added to some of the dishes. Twenty hours later, apoptosis was determined by FACS analysis of cells positive for the CD4 marker by measuring binding of fluorescein isothiocyanate (FITC)-conjugated annexin V (Brand Applications) (see WO 97/25428).

[6] = system: Jun N-terminal kinase (JNK/SAPK); assay: JNK/SAPK activity in 293 cells transfected with full length Apo-3 Ligand; format: cell-based, human; conditions: 293 cells transfected, FIG. 7
Description: The pRK5 plasmid encoding Apo-3 Ligand polypeptide or empty pRK5 plasmid (see Example 6 above) was transiently transfected into human 293 cells (ATCC CCL 1573) by calcium phosphate precipitation. Four hours later, one set of cells was treated with z-VAD-fmk (Research Biochemicals) (200 μM). Twenty hours later, the cells were harvested and analyzed for activity of Jun N-terminal kinase (JNK; also called stress activated protein kinase or SAPK) using a commercially available JNK/SAPK assay kit (New England Biolabs), and according to the manufacturer's instructions.

[7] = target: T1, Apo-3; assay: Co-immunoprecipitation binding assay with Flag-tagged soluble Apo-3; conditions: ligand and receptor 1 μg/ml, FIG. 8A
Description: A binding assay was conducted to determine if Apo-3 Ligand binds Apo-3 receptor. Apo-3 receptor was described by Marsters et al., Curr. Biol., 6:750 (1996). Other investigators have also referred to Apo-3 as DR3 [Chinnayian et al., Science, 274:990 (1996)], Wsl-1 [Kitson et al., Nature, 384:372 (1996)], TRAMP [Bodmer et al., Immunity, 6:79 (1997)], or LARD [Screaton et al., PNAS, 94:4615-4619 (1997)].
(§1) A Flag-epitope tagged soluble Apo-3 was produced (as described for DR5 in Sheridan et al., Science, 277:818 (1997)) and tested in a co-immunoprecipitation assay to examine its ability to associate with a histidine tagged soluble Apo-3 Ligand (see Example 3 above). […] The respective ligands (1 μg/ml) and receptors (1 μg/ml) were incubated for 1 hour at room temperature. The reaction mixtures were subjected to precipitation with anti-Flag antibody conjugated to sepharose beads (Kodak) (FIG. 8A, left) or nickel-sepharose (Qiagen) (FIG. 8A, right) by overnight incubation at 4° C. according to manufacturer's instructions and resolved by gel electrophoresis. The ligands were visualized by Western blot analysis with nickel-conjugated horseradish peroxidase. In FIG. 8A, molecular weight markers (kDa) are indicated on the left.

[8] = target: T2, DR5 (Homo sapiens, UniProt O14763); assay: Co-immunoprecipitation binding assay with DR5 ECD; conditions: ligand and receptor 1 μg/ml, FIG. 8A
T2 construct: the ECD of the Apo-2L receptor, DR5; made in house
T2 sequence (O14763 56-184 limits assumed): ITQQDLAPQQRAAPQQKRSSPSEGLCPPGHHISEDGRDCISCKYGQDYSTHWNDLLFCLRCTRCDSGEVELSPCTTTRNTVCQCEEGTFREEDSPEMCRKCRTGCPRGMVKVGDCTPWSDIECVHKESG
Description: as §1

[9] = system: MCF-7 cells; assay: Apoptosis by soluble Apo-3 Ligand in MCF-7 cells transfected with caspase inhibitors or FADD mutant; format: cell-based, human; conditions: CHX 1 hour, soluble Apo-3 Ligand 2 μg/ml 14 hours, FIG. 9D
Description: MCF-7 cells were transfected by lipofection with empty vector (pRK5; EP 307,247) or with expression plasmid encoding the caspase inhibitors, p35 or CrmA, or a dominant-negative FADD mutant (Tularik, South San Francisco, Calif.). Sixteen hours later, the cells were pre-treated with CHX for 1 hour, and then treated for an additional 14 hours with soluble Apo-3 Ligand (2 μg/ml).

Molecule	NF-κB activation ([1]; 10 μg/ml, 30 minutes)	level of NF-κB activation compared with Apo-2 ligand [1]	level of NF-κB activation compared with TNF-alpha [1]	apoptosis (morphological changes and chromatin condensation) [2]	apoptosis (internucleosomal DNA fragmentation) [3]	NF-κB activation [4]	level of apoptosis compared with pRK5 (control) [5]	level of JNK/SAPK activity compared with pRK5 control [6]	binding to Apo-3 [7]	binding to Apo-3 ([7]; listed as Apo-3L)	binding to DR5 [8]	effect of transfection on induction of apoptosis by Apo-3 Ligand [9]
soluble Apo-3 Ligand (protein) MGHHHHHHHHHHSSGHIDDDDKHMRASLSAQEPAQEELVAEEDQDPSELNPQTEESQDPAPFLNRLVRPRRSAPKGRKTRARRAIAAHYEVHPRPGQDGAQAGVDGTVSGWEEARINSSSPLRYNRQIGEFIVTRAGLYYLYCQVHFDEGKAVYLKLDLLVDGVLALRCLEEFSATAASSLGPQLRLCQVSGLLALRPGSSLRIRTLPWAHLKAAPFLTYFGLFQVH	induced significant NF-κB activation	comparable	weaker	induced marked apoptosis	induced marked apoptosis							
Apo-3 Ligand: Novel human TNF family polypeptide of 249 amino acids encoded by clone DNA30879-1152 (ATCC 209358) (protein) MGHHHHHHHHHHSSGHIDDDDKHMRASLSAQEPAQEELVAEEDQDPSELNPQTEESQDPAPFLNRLVRPRRSAPKGRKTRARRAIAAHYEVHPRPGQDGAQAGVDGTVSGWEEARINSSSPLRYNRQIGEFIVTRAGLYYLYCQVHFDEGKAVYLKLDLLVDGVLALRCLEEFSATAASSLGPQLRLCQVSGLLALRPGSSLRIRTLPWAHLKAAPFLTYFGLFQVH				induced apoptosis		NF-κB activation	about a doubling of the level of apoptosis	detectable increase; also recorded: increased JNK/SAPK activity	bound to Apo-3	specifically binds to Apo-3	not to DR5	
p35: virus-derived caspase inhibitor, expressed from a transfected plasmid (protein, UniProt P08160 1-299, looked up) Early 35 kDa protein: MCVIFPVEIDVSQTIIRDCQVDKQTRELVYINKIMNTQLTKPVLMMFNISGPIRSVTRKNNNLRDRIKSKVDEQFDQLERDYSDQMDGFHDSIKYFKDEHYSVSCQNGSVLKSKFAKILKSHDYTDKKSIEAYEKYCLPKLVDERNDYYVAVCVLKPGFENGSNQVLSFEYNPIGNKVIVPFAHEINDTGLYEYDVVAYVDSVQFDGEQFEEFVQSLILPSSFKNSEKVLYYNEASKNKSMIYKALEFTTESSWGKSEKYNWKIFCNGFIYDKKSKVLYVKLHNVTSALNKNVILNTIK												blocked induction of apoptosis
